Measured values taken from US20070298041A1 (published 2007).

T1: human TNFR1 (biotinylated, immobilized on SPR chip) (human (Homo sapiens), UniProt P19438 30-211, biotinylated (site not stated))
T1 construct: also called hTNFR1
T1 sequence: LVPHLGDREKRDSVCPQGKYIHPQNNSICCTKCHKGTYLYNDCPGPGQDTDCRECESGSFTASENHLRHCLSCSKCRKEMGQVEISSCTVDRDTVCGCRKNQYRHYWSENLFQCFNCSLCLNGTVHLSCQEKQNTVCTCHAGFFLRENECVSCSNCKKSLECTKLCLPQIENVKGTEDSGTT

T2: mouse TNFR1 (biotinylated, immobilized on SPR chip) (mouse (Mus musculus), UniProt P25118 30-212, biotinylated (site not stated))
T2 construct: also called murine TNFR1; mTNFR1
T2 sequence: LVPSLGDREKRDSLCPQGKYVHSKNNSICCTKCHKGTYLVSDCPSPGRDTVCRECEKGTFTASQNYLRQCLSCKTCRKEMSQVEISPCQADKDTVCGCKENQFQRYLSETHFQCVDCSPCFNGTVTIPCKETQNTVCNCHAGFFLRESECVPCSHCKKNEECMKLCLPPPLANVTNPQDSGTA


Columns and labels:
[1] = biological target: T1, human TNFR1 (biotinylated, immobilized …); experiment: SPR (BIACORE 3000), biotinylated human TNFR1 on streptavidin chip, competition with chimeric TNFR1 proteins
Experimental: (§1) If the dAb is pre-incubated and equilibrated with a chimeric molecule that comprises the domain(s) of TNFR1 that the particular dAb binds, then flow of this mixture over the TNFR1 surface will produce a smaller SPR signal relative to the dAb alone.
(§2) The choice of TNFR1 surface is determined by the species specificity of the anti-TNFR1 dAb to be tested. Therefore anti-human TNFR1 dAbs were evaluated using a surface coated with human TNFR1 and anti-mouse TNFR1 dAbs were evaluated using a chip coated with mouse TNFR1.
(§3) Biotinylated TNFR1 was diluted in the appropriate SPR buffer and run across a streptavidin (SA) sensor chip in a BIACORE 3000 SPR instrument (Biacore International AB, Uppsala, Sweden). A low flow-rate (5-10 μl/minute) was used in order to maximise the contact time between the biotinylated TNFR1 and the streptavidin surface. Flow continued until the streptavidin surface was saturated with biotinylated material, in order to generate a chip with maximal TNFR1 surface.

[2] = biological target: T2, mouse TNFR1 (biotinylated, immobilized …); experiment: SPR (BIACORE 3000), biotinylated mouse TNFR1 on streptavidin chip, competition with chimeric TNFR1 proteins
Experimental: as §1, §2, §3

| binding result [1] | binding result [2] | Binder |
| --- | --- | --- |
| binds |  | TAR2h-205 (other, Domain antibody (dAb), a single immunoglobulin VH variable domain; also called anti-human TNFR1 dAb) VH: EVQLLESGGGLVQPGGSLRLSCAASGFTFVKYSMGWVRQAPGKGLEWVSQISNTGGHTYYADSVKGRFTISRDNSKNTLYLQMNSLRAEDTAVYYCAKYTGRWEPFDYWGQGTLVTVSS |
|  | binds | TAR2m-21-23 (other, Domain antibody (dAb), a single immunoglobulin VH variable domain; also called anti-mouse TNFR1 dAb) VH: EVQLLESGGGLVQPGGSLRLSCAASGFTFNRYSMGWLRQAPGKGLEWVSRIDSYGRGTYYEDPVKGRFSISRDNSKNTLYLQMNSLRAEDTAVYYCAKISQFGSNAFDYWGQGTQVTVSS |
